According to patent US10876098B2, “Polynucleotide, host cell and a method to recombinantly produce the protein encoded by said polynucleotide having peroxygenative activity” (CONSEJO SUPERIOR DE INVESTIGACIONES CIENTIFICAS (CSIC), priority 2015, dated 2020):

Experiments:
[1] = Turnover with 5′-hydroxypropranolol as substrate, HPLC; assay type: biochemical; details: 0.03 μM enzyme, 0.4 mM 5′-hydroxypropranolol, 2 mM H2O2, absence of ascorbic acid
Protocol: FIG. 14 Turnover rates of AaeUPO, JaWa and SoLo. […] The disappearance of the product 5′-hydroxypropranolol can be observed due to the formation of its corresponding quinone by means of the peroxidase activity of the enzyme.
The reactions were analysed by means of chromatography in reverse phase (HPLC). The equipment was composed of a tertiary pump (Varian-Agilent Technologies, USA) coupled to an autosampler (Merck Millipore, MA, USA); for the separation, a Zorbax Eclipse plus C18 column (15 cm×4.6 cm) at 40° C. was used and the detection was performed using a photodiode detector (PDA) (Varian, Agilent Technologies, USA). The mobile phase selected was a gradient from 10% methanol and 90% ddH2O (in both cases with 0.1% of acetic acid) up to 90% methanol and 10% ddH2O at a flow rate of 0.8 mL/min. The reaction was quantified at 280 nm (based on HPLC standards). […] The standard deviations were less than 5% in all cases.

Optimum pH for DMP = assay type: biochemical
[2] = Thermostability assay (T50), culture supernatants, residual activity with ABTS; assay type: physicochemical
Protocol: An individual S. cerevisiae colony was selected with the corresponding clone (grown in a SC drop-out minimal medium plate: 100 mL of 6.7% yeast nitrogen base, 100 mL of 19.2 g/L uracil-free amino acid supplement, 100 mL of 20% glucose, 1 mL of 25 g/L chloramphenicol and ddH2O up to 1,000 mL) was inoculated in 2 mL of selective minimal medium (as in the SC plate medium, but with 20 g of bacto agar and rafinose instead of galactose) and was incubated for 48 hour at 30° C. and 220 RPM. An aliquot of this culture was taken such that, upon inoculating it in 5 mL of new minimal medium, optical density at 600 nm would have a value of 0.25 (optical density, OD600=0.25). This starter was incubated until completing two full growth cycles (between 6 and 8 hours), at which time 1 mL of cells were taken to inoculate 9 mL of expression medium in a 100 mL flask (OD600=0.1). This culture of each clone was incubated for 72 hours at 25° C. and 220 RPM (at peak UPO activity; OD600=25-30), the cells were separated by centrifugation (10 minutes at 4,500 RPM and 4° C.) and supernatant was filtered (using a glass and nitrocellulose filter with a pore size of 0.45 μm). Appropriate dilutions of the supernatants were prepared so that aliquots of 20 μL would give rise to a linear response in kinetic mode. 50 μL of supernatant were used for each point in a temperature gradient created by means of thermocyclator, from 30 to 80° C. After incubating for 10 minutes, the aliquots were cooled in ice for 10 minute and tempered at room temperature for 5 minutes. […] The thermostability values were calculated in accordance with the ratio between the residual activities incubated at different temperatures and the value of initial activity at room temperature. The value of T50 was determined as the value of the temperature at which the protein loses 50% of it initial activity after incubating for 10 minutes.
An individual S. cerevisiae colony was selected with the corresponding clone (grown on a SC drop-out minimal medium plate: 100 mL of 6.7% yeast nitrogen base, 100 mL of 19.2 g/L uracil-free amino acid supplement, 100 mL of 20% glucose, 1 mL of 25 g/L chloramphenicol and ddH2O up to 1,000 mL), was inoculated in 3 mL of selective minimal medium (like the SC plate medium, but with 20 g of bacto agar and rafinose instead of galactose) and incubated for 48 hours at 30° C. and 220 RPM. […] The thermostability values were calculated in accordance with the ratio between the residual activities incubated at different temperatures and the value of initial activity at room temperature. The value of T50 was determined as as the temperature value at which the protein loses 50% of its initial activity after incubating for […].

[3] = Conversion of 1-naphthol into 1,4-naphthoquinone, HPLC; assay type: biochemical; details: versus PaDa-I
Protocol: Each reaction was performed in triplicate and were stopped with HCl (pH<1) at different times (between 60 and 600 s). Inset: polymeric colorimetric products derived from 1.4-naphthoquinone, 1: PaDa-I and 2: JaWa.
This effect can also be observed at first glance, since the polymeric products produced in the reaction with the PaDa-I variants (SEQ ID NO: 18) (due to non-enzymatic quinone regrouping processes) are coloured (FIG. 4). There are hypotheses in literature on the possibility that UPO is similar to CPO in the existence of different sites with peroxidase activity in its structure. To suppress these alternative peroxidation pathways, the structure of the AaeUPO1 crystal was closely examined and a variant was built by mean of directed mutagenesis in Trp24 (FIG. 5A), a highly oxidable residue, found on the protein surface, using the PaDa-I (SEQ ID NO: 18) and JaWa (SEQ ID NO: 24) variants as templates, as described in the section on materials and methods.

B1: JaWa: PaDa-I variant with added mutations G241D and R257K, SEQ ID NO: 24 (protein)
chain: MKYFPLFPTLVYAVGVVAFPDYASLAGLSQQELDAIIPTLEAREPGLPPGPLENSSAKLVNDEAHPWKPLRPGDIRGPCPGLNTLASHGYLPRNGVATPAQIINAVQEGFNFDNQAAIFATYAAHLVDGNLITDLLSIGRKTRLTGPDPPPPASVGGLNEHGTFEGDASMTRGDAFFGNNHDFNETLFEQLVDYSNRFGGGKYNLTVAGELRFKRIQDSIATNPNFSFVDFRFFTAYGETTFPANLFVDGRRDDGQLDMDAARSFFQFSRMPDDFFRAPSPRSDTGVEVVVQAHPMQPGKNVGKINSYTVDPTSSDFSTPCLMYEKFVNITVKSLYPNPTVQLRKALNTNLDFLFQGVAAGCTQVFPYGRD
- 5′-hydroxypropranolol maintained without oxidising [1]: oxidise practically the entire product
- Optimum pH for DMP (Optimum pH for DMP): 6.0
- Thermal stability, T50 ([2]; culture supernatants, temperature at which the enzyme retains 50% of its activity after 10 minutes of incubation): 59.7 °C
- increase in thermostability (T50) with respect to PaDa-I ([2]; versus PaDa-I variant): 2 °C
- reduction in the ratio 1,4-naphthoquinone:1-naphthol [3]: ~1.5 fold
